Here are results for eleven sequences from the supplement of paper PMC9170038.

The data set relates to MS2 coat protein. Nature of the data set: apparent KD of MS2 coat protein; designed switch direction (-1 OFF switch, 1 ON switch): 1; higher = weaker reporter binding. The gist of the method:
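Stalled E. coli RNA polymerase transcribed designed RNA switches on Illumina chips, which were then titrated with SNAP-549-labelled MS2 coat protein, doubling from 0.7 or 1.5 nM to 3 µM. Steps lasted from 0.8–1.5 h at the lowest concentration to 10–20 min at the highest. The apparent KD is each design's median over clusters of curve-fitted normalised fluorescence.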

Where [1] appears, read: input ligand: microRNA oligo, concentration not stated.
The mark [2] stands for this setting: Eterna round: R95, input ligand: FMN 200 uM.
[3] abbreviates: Eterna round: R95, input ligand: microRNA oligo, concentration not stated.
Setting [4] is: Eterna round: R95, input ligand: none.

As to “CUAGGAGGAUGAGGAUAUGCAGAGGAUCACCCUGUAGAAGGCAAGAGAUGAGGAUAUGCAGAGGAUCACCCUGUAGAAGGCAAC [pwkr ssNG DX.1] (Eterna round: R96, puzzle: Same State NG 1)”, the “apparent KD of MS2 coat protein” value amounted to 307 nM (input ligand: FMN 200 uM), 86.5 nM under setting [1] and 122 nM (input ligand: none).

In the case of “CUAUCUACAGGUGUCUUUGCUCGUUUUAUACAUGAGGAUCACCCAUGUUAUAGCCCGGUGCUUGCGCUGGGCUGAUU [JL ViennaUCT Tearor mod 7] (puzzle: Sensor for hsa-mir-208a)”, the “apparent KD of MS2 coat protein” value reads like this: under setting [2], 100 nM; under setting [3], 15.5 nM; under setting [4], 95.3 nM.

Turning to “CUGAGAUGUCAAGGAUAUCACGUCGAUUAGACGUGAGAAGGUGAUCAGUACAUGAGGAUCACCCAUGUGUUACAUGGAACUCAG [Brourd's SSNG1/1-A2 mod 9] (Eterna round: R96, puzzle: Same State NG 1)”, the “apparent KD of MS2 coat protein” value worked out at 868 nM (input ligand: FMN 200 uM), 102 nM under setting [1] and 571 nM (input ligand: none).

As to “CUGAGCGAUCAAGGAUAUCACGUCGAUUAGACGUGAGAAGGUGAUCCAUACAUGAGGAUCACCCAUGUAUAACAUGAAGCUCAG [SSNG1/8-A2] (Eterna round: R96, puzzle: Same State NG 1)”, the “apparent KD of MS2 coat protein” value by setting is: (input ligand: FMN 200 uM) 414 nM; under setting [1], 507 nM; (input ligand: none) 861 nM.

In the case of “CUGAGCGAUCGAGGAUAUCACGUCGUUUAGACGUGAGAAGGCGAUCAUAACAUGAGGAUCACCCAUGUAUUACAUGAAGCUCAG [SSNG1/4-A3] (Eterna round: R96, puzzle: Same State NG 1)”, the “apparent KD of MS2 coat protein” value is, setting by setting: (input ligand: FMN 200 uM) 16.8 nM; under setting [1], 14.9 nM; (input ligand: none) 19.2 nM.

Consider “CUGUAUCACGGAGGAUAUGGGCUGAGACCAGGGCAACCCUGGUCAACAUGAGGAUCACCCAUGUCCCAGAAGGCCGCGAUGCUA [Geisorqu] (Eterna round: R96, puzzle: Same State NG 2)”, for which the “apparent KD of MS2 coat protein” value (input ligand: FMN 200 uM) was found to be 23.8 nM, the “apparent KD of MS2 coat protein” value under setting [1] amounted to 82.9 nM and the “apparent KD of MS2 coat protein” value (input ligand: none) was found to be 137 nM.

Take “CUGUCUACAGGUGUCUUUGCUCGUUUUAUACAUGAGGAUCACCCAUGUUGUAGCCCGGUGCUUGCGCUGGGCUGGUU [JL ViennaUCT Tearor mod 9] (puzzle: Sensor for hsa-mir-208a)”: the “apparent KD of MS2 coat protein” value under setting [2] was 66 nM, the “apparent KD of MS2 coat protein” value under setting [3] was found to be 15.6 nM and the “apparent KD of MS2 coat protein” value under setting [4] was determined as 72.7 nM.

“GAAGGAUGAGCGUAGGAUAUAGGAGGAGUGACAUGAGGAUCACCCAUGUAGUAGGAGGGAGGGUACUAGAAGGACGAGGAAGAAG [JR_SS2_Sub067] (puzzle: Same State 2)”: the “apparent KD of MS2 coat protein” value reads like this: under setting [2], 39.7 nM; under setting [3], 49.3 nM; under setting [4], 51.5 nM.

On to “GAAGGAUGAGCGUAGGAUAUAGGAGGAGUGACAUGAGGAUCACCCAUGUGGUAGGAGGGAGGGUACUAGAAGGACGAGGAAGAGG [JR_SS2_Sub069] (Eterna round: R96, puzzle: Same State 2)”, for which the “apparent KD of MS2 coat protein” value reads like this: (input ligand: FMN 200 uM) 102 nM; under setting [1], 49.7 nM; (input ligand: none) 84 nM.

In the case of “GAAGGAUGAGCGUAGGAUAUAGGAGGAGUGACAUGAGGAUCACCCAUGUGGUAGGAGGGAGGGUACUAGAAGGACGAGGAAGAGG [JR_SS2_Sub069] (puzzle: Same State 2)”, the “apparent KD of MS2 coat protein” value by setting is: under setting [2], 216 nM; under setting [3], 106 nM; under setting [4], 161 nM.

Turning to “GACAAUCUAUCUCAGGAUAUCAUGUCAAAGACAUGAGGAUCACCCAUGUACCAGGAAACUGGUUAUGAGAAGGGAGAUAGAUUGG [Mat - Same State 2 - Mod - D27] (puzzle: Same State 2)”, the “apparent KD of MS2 coat protein” value by setting is: under setting [2], 179 nM; under setting [3], 15.7 nM; under setting [4], 5660 nM.
